Biological target: GST-PSD-95 (rat, UniProt P31016 1-724)
Assay: co-IP

GST-PSD-95, sequence (P31016 whole entry): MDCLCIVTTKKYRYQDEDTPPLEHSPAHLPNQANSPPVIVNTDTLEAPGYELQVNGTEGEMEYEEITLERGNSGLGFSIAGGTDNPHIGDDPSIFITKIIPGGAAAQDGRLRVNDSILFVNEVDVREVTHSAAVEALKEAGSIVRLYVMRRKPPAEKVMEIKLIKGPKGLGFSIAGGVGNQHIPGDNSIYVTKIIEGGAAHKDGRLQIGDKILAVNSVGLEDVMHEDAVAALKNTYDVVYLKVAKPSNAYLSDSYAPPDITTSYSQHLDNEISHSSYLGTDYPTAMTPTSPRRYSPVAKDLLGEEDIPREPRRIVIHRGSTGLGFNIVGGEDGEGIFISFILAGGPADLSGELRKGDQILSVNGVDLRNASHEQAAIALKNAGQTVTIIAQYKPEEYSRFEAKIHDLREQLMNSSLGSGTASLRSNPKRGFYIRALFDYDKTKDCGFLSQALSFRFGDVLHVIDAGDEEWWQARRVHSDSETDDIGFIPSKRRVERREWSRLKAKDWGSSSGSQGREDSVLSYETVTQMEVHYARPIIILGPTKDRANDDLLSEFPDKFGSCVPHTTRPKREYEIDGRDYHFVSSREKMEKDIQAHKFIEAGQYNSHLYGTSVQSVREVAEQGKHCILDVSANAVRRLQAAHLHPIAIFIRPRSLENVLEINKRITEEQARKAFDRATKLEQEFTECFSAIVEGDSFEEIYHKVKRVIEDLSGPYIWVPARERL

B1: GST-ILK (enzyme, rat, UniProt Q99J82 1-452, looked up)
chain: MDDIFTQCREGNAVAVRLWLDNTENDLNQGDDHGFSPLHWACREGRSAVVEMLIMRGARINVMNRGDDTPLHLAASHGHRDIVQKLLQYKADINAVNEHGNVPLHYACFWGQDQVAEDLVANGALVSICNKYGEMPVDKAKAPLRELLRERAEKMGQNLNRIPYKDTFWKGTTRTRPRNGTLNKHSGIDFKQLNFLAKLNENHSGELWKGRWQGNDIVVKVLKVRDWSTRKSRDFNEECPRLRIFSHPNVLPVLGACQAPPAPHPTLITHWMPYGSLYNVLHEGTNFVVDQSQAVKFALDMARGMAFLHTLEPLIPRHALNSRSVMIDEDMTARISMADVKFSFQCPGRMYAPAWVAPEALQKKPEDTNRRSADMWSFAVLLWELVTREVPFADLSNMEIGMKVALEGLRPTIPPGISPHVCKLMKICMNEDPAKRPKFDMIVPILEKMQDK
B1: binds.

Source: publication PMC3773608 (Journal of molecular neuroscience : MN, 2009)
